From patent publication US20120114557A1 (published 2012)
Each block holds one binder with its values, some of them ahead of it. Bridge positions count the residues as written; N and C are the ends. Primed or numbered codes have the meaning given here. Side chains are listed from the residue outwards. Ends that are not written are not given here. Gd^T″ = GdDTPA-thiourea; Gd^ = not defined here

Columns and labels:
[1] = molecular target: T1, human collagen (acid soluble, extracted from placenta; type I) (human, UniProt P02452 162-1218; P08123 80-1119); experiment: dried collagen assay, 5 uM each, 37 C, pH 7.4
T1 construct: mature; Tissue-extracted collagen; also called human collagen type I
T1 sequence (P02452 162-1218, chain 1 of 2): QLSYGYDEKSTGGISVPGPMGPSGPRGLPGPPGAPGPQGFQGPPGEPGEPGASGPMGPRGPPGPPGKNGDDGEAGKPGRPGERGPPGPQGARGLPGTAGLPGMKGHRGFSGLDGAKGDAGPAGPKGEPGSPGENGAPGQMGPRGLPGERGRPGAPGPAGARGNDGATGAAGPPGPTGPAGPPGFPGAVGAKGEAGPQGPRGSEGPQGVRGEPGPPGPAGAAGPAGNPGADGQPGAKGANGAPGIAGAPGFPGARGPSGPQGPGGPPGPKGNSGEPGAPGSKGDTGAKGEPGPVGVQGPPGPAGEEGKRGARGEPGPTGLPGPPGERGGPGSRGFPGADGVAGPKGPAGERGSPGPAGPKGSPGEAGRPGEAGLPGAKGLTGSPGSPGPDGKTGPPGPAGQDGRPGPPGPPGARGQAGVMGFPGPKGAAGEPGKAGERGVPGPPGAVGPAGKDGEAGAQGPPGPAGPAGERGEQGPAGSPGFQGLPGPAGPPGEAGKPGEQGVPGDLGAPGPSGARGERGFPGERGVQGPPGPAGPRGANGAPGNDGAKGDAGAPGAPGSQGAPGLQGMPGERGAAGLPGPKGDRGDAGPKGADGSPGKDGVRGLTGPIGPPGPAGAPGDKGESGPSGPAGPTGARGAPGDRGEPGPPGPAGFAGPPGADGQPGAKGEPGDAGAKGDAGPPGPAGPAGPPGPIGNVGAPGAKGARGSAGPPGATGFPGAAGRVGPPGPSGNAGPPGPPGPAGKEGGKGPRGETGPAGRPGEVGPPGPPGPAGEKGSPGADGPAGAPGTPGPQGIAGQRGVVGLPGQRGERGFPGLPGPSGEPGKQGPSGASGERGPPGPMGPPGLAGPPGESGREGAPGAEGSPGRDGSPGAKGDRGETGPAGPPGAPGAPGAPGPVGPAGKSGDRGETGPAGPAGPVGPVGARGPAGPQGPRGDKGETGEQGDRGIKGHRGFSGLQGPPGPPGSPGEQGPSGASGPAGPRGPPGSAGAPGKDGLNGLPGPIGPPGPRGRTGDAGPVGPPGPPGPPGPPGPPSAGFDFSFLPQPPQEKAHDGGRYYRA
T1 sequence (P08123 80-1119, chain 2 of 2): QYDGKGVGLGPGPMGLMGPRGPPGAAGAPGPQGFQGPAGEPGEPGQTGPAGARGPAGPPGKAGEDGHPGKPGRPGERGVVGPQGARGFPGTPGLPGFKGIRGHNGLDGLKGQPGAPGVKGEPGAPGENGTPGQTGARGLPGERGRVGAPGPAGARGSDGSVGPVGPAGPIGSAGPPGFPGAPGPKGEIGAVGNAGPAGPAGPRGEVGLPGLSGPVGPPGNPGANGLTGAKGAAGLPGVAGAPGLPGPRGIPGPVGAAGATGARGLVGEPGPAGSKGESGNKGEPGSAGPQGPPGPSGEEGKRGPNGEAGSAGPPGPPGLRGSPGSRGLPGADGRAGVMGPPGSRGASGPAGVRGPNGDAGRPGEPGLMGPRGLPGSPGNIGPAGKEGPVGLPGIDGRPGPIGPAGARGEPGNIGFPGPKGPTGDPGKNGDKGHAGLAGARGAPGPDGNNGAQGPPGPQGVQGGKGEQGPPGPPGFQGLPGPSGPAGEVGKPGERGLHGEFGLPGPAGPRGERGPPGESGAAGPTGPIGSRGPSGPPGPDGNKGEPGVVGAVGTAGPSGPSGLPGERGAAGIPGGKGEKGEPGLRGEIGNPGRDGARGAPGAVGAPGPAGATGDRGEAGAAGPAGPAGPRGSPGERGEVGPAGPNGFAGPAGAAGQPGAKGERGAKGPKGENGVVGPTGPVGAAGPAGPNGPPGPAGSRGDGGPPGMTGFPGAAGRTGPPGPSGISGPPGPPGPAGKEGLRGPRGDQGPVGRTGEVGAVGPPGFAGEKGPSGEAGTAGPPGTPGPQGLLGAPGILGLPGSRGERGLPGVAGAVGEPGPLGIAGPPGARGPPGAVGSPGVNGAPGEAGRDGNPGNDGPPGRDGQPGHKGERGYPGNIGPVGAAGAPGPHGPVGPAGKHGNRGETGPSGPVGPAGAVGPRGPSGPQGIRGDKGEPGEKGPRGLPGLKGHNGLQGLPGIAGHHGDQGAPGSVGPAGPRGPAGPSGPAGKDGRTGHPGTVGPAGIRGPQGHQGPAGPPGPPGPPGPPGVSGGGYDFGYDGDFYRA
Experimental: (§1) For the final assay, a 1:10 volume of 10×PBS (100 mM NaH₂PO₄, 1.5 M NaCl pH 7.4) is added to the collagen solution (final 1×PBS) and incubated at 37° C. for 2 hours.

[2] = molecular target: T2, rat collagen (acid soluble, type I, rat tail) (rat, UniProt P02454 152-1207; P02466 86-1125); experiment: dried collagen assay, 5 uM each, 37 C, pH 7.4
T2 construct: mature; Tissue-extracted collagen; also called rat collagen type I
T2 sequence (P02454 152-1207, chain 1 of 2): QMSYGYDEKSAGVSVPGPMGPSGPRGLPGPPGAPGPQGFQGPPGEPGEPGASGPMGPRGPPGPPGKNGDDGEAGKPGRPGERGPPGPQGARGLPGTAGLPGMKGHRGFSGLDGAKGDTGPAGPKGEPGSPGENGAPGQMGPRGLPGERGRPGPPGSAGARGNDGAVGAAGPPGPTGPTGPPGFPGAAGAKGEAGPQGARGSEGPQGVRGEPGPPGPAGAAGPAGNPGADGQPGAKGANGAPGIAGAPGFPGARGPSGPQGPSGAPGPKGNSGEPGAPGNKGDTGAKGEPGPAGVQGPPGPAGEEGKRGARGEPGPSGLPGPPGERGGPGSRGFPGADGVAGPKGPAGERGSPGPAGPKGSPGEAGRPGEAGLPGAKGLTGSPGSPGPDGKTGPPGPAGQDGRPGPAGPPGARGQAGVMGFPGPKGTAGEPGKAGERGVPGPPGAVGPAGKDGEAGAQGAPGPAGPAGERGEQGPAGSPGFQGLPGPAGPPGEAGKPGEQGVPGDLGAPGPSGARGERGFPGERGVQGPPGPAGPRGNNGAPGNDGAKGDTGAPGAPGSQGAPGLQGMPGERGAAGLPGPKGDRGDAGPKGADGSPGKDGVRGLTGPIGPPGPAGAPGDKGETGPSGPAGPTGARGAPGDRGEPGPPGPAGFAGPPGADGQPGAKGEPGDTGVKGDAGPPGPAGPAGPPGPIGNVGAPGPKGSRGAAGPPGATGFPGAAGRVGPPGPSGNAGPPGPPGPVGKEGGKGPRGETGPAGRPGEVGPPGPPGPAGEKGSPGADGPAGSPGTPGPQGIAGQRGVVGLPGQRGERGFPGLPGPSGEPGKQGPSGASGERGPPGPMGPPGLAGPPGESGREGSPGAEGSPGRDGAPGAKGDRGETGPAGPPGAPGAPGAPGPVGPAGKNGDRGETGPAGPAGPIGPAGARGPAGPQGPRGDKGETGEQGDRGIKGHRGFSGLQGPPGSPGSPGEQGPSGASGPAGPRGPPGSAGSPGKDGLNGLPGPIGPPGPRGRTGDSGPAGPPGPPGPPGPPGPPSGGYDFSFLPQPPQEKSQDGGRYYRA
T2 sequence (P02466 86-1125, chain 2 of 2): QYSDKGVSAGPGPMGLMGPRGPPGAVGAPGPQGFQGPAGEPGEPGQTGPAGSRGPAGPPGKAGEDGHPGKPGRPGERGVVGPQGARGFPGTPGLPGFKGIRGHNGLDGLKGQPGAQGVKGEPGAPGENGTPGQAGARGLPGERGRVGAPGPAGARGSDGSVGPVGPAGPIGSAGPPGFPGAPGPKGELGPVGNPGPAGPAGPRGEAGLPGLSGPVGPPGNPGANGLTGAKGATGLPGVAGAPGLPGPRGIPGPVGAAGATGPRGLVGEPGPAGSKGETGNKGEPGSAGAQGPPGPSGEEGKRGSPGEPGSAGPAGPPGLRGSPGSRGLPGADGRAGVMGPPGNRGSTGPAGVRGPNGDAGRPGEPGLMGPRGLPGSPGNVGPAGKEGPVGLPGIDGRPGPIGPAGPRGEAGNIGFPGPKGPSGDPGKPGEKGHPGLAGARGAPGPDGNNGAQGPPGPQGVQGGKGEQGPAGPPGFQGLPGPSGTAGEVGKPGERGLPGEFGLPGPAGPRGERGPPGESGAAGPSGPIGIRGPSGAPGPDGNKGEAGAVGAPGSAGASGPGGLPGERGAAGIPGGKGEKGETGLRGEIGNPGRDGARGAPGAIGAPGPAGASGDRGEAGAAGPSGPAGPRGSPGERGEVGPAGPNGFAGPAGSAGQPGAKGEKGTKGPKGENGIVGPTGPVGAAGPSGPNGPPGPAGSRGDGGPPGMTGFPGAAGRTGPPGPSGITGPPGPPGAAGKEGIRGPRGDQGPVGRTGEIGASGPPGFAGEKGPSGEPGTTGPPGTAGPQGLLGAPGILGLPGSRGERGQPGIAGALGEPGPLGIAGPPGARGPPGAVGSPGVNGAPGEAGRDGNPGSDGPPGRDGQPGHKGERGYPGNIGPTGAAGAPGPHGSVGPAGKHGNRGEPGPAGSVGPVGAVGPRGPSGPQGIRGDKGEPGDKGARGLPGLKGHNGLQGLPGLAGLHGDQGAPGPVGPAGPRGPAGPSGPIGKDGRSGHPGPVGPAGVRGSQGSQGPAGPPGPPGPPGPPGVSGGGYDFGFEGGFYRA
Experimental: as §1

human collagen type I [3] = molecular target: T3, human collagen type I (human, UniProt P02452 162-1218; P08123 80-1119); experiment: dried collagen assay, 5 uM peptide
T3 construct: biotinylated collagen I in the phage ELISA; also called dried human collagen; Collagen I
T3 sequence (P02452 162-1218 limits assumed, chain 1 of 2): as the sequence (P02452 162-1218, chain 1 of 2) above
T3 sequence (P08123 80-1119 limits assumed, chain 2 of 2): as the sequence (P08123 80-1119, chain 2 of 2) above
Experimental: An additional 90 μL is reserved in a HPLC glass vial as a measure of the total concentration.

human collagen type I [4] = molecular target: T3, human collagen type I; experiment: dried collagen assay, 5 uM peptide; remark: listed apart in the source
rat collagen type I = molecular target: T4, rat collagen type I (rat, UniProt P02454 152-1207; P02466 86-1125); experiment: dried collagen assay, 5 uM peptide
T4 construct: rat tail, Upstate 08-115; gelled and dried in wells; also called dried rat collagen; rat collagen (acid soluble, type I, rat tail)
T4 sequence (P02454 152-1207, chain 1 of 2): as the sequence (P02454 152-1207, chain 1 of 2) above
T4 sequence (P02466 86-1125, chain 2 of 2): as the sequence (P02466 86-1125, chain 2 of 2) above

B1: Compound ID 864 (peptide)
peptide: {Gd^}-TGQWHCTTRFPHHYCLYG
modifications: not fully specified (some residues, bridges); printed as Gd^T.G.Q.W.H.C.T.T.R.F.P.H.H.y.C.L.Y.G; reading uncertain; also: series closure stated: disulfide
notes: also called Comp ID NO; 864
Human binding [1]: 64%

Binder: {Gd^T″}-GK([Gly-Gd^T″])WHCTTLFPHHVCLYG (disulfide 5-14 (inferred), also called Comp ID NO; 966) [Compound ID 966]
Rat binding [2]: 8%

Binder: {Gd^T″}-GQWTCSGDEYTWHCNYE-{GTE} (disulfide 5-14 (inferred), also called Comp ID NO; 837) [Compound ID 837]
Human binding [1]: 22%
Rat binding [2]: 10%

Binder: GWQCFGASDWHCTWV (disulfide 4-12, also called TN-9 peptide) [SEQ ID NO: 8]
Dried Human Collagen Binding (human collagen type I [3]): 9%

Binder: RWSCVLDADGWVCSDN (disulfide 4-13 (inferred), also called TN-10 peptide) [SEQ ID NO: 66]
Dried Human Collagen Binding (human collagen type I [3]): 6%

The remaining lines, values ahead:

Dried Human Collagen Binding (human collagen type I [3]): 12%
Binder: GWQCQGTDSLDWKCLYM (disulfide 4-14 (inferred), also called TN-11 peptide) [SEQ ID NO: 77]

Dried Human Collagen Binding (human collagen type I [3]): 5%
Binder: GWSCHSMDMQWHCDFS (disulfide 4-13 (inferred), also called TN-10 peptide) [SEQ ID NO: 67]

Dried Human Collagen Binding (human collagen type I [3]): 5%
Binder: WQVCADSPGVITYCYTY (disulfide 4-14 (inferred), also called TN-11 peptide) [SEQ ID NO: 98]

Dried Human Collagen Binding (human collagen type I [3]): 10%
Binder: ERNCVLNDFRWTCGGD (disulfide 4-13 (inferred), also called TN-10 peptide) [SEQ ID NO: 75]

% Collagen Binding, Dried Human (human collagen type I [4]): 5%
% Collagen Binding, Dried Rat (rat collagen type I): 12%
Binder: YHACYQAGCYIY (disulfide 4-9 (inferred), also called TN-6 peptide) [SEQ ID NO: 108]

Dried Human Collagen Binding (human collagen type I [3]): 6%
Binder: SWYCNNGSYGQWHCEHR (disulfide 4-14 (inferred), also called TN-11 peptide) [SEQ ID NO: 80]

Dried Human Collagen Binding (human collagen type I [3]): 5%
Binder: SWHCFLENHHWMCSDH (disulfide 4-13 (inferred), also called TN-10 peptide) [SEQ ID NO: 68]
